Here are results for eight compounds from US6124125A, “AMP activated protein kinase” (Trustees of Dartmouth College, priority 1996, dated 2000).

“And” between values parts separate entries of the source, which are not always exact repeats. Identical values can stand only once. Where no end group is shown, it is not given here. Some results are limits rather than exact numbers.

As usually defined, the Km is the substrate concentration at which the rate is half of its maximum.

One series has as its system AMPK α2. The class given is biochemical, rat. The settings on record: alpha2 immune precipitates.
In the next series the test system is AMPK α1. The class given is biochemical, rat. The settings on record: alpha1 immune precipitates, 200 µM.
The subject of the next series is AMPK. Briefly: AMPK protein kinase assay: phosphorylation of synthetic peptide substrates by partially purified enzyme (DE-52 step). Type of series: biochemical, porcine. The settings on record: for rate of phosphorylation relative to the SAMS peptide: partially purified enzyme (purified to the DE-52 step), % of the rate of the SAMS peptide; for Km: peptide as substrate of AMPK, read-out: apparent Km as substrate for the AMPK. From the text:
A series of synthetic peptides including analogues of proteins […] to be substrates for the AMPK were screened with partially purified enzyme (purified to the DE-52 step). These included the myosin light chains, ADR1, glycogen synthase and phospholemman. The phospholemman peptides tested were poor substrates and not investigated further. The glycogen synthase peptide, PLSRTLSVAAKK (SEQ ID NO: 46) was phosphorylated in an AMP-dependent manner at approximately 40% of the rate of the SAMS peptide, however, this peptide is an excellent substrate for a number of protein kinases, including protein kinase C and calmodulin dependent protein kinase II (Kemp, B. E. and Pearson, R. B. (1991) in Protein Phosphorylation, Hunter, T and Sefton, B. M. (eds) Methods in Enzymology, 200, 121-134). The myosin light chain peptides tested were phosphorylated with rates approximately 15% of the SAMS peptide.
The AMPK was assayed in accordance with procedures described by Davies et al. (1989) Eur. J. Biochem. 186, 123-128 using the SAMS peptide substrate, HMRSAMSGLHLVKRR-amide (SEQ ID NO: 49). The enzyme was diluted in diluting buffer (20 mM HEPES pH 7.0, 0.1% (v/v) Triton X-100) prior to assay and the reactions were initiated by adding […] diluted enzyme to the reaction mixture containing peptide substrate. The reactions were stopped by withdrawing […] aliquots and applying to P81 papers in accordance with procedures described by Pearson, R. B., Mitchelhill, K. I., and Kemp, B. E. (1993) in Protein Phosphorylation: A Practical Approach, Hardie, G. D. (ed) Oxford University Press, pp 265-291.

Series [1] deals with SAMS peptide. The settings on record: scale: % of the SAMS peptide phosphotransferase activity of rat liver.
Series [2] deals with SAMS peptide.
Series [3] deals with ADR1(222-234)P229 peptide.
Series [4] has as its target SAMS peptide. This is another data set of the same source.
Series [5] has as its target glycogen synthase peptide.
The target in series [6] is ADR1(225-234) peptide (Saccharomyces cerevisiae (strain ATCC 204508 / S288c) (Baker's yeast)) (UniProt P07248).
The target in series [7] is myosin light chain peptides.

`Nc1ncnc2c1ncn2[C@@H]1O[C@H](COP(=O)(O)O)[C@@H](O)[C@H]1O` [5'-AMP]: the “activation by 5'-AMP” value in the series with AMPK α2 is 3-4 fold; in the series on AMPK α1, 2-3 fold.
Consider “ADR1(225-234): synthetic ADR1 peptide screened as AMPK substrate (LTRRASFSAQ)”, for which the “rate of phosphorylation relative to the SAMS peptide” value with AMPK is “approximately 50%”.
In the case of “AMPK α1 isoform holoenzyme purified from liver by peptide substrate affinity chromatography (63 kDa catalytic subunit, 40 kDa and 38 kDa subunits) (from UniProt P54645)”, the SAMS peptide phosphotransferase activity with SAMS peptide [1] is above 94.
“AMPK α2 isoenzyme of rat liver (α2 with β and γ subunits), from the unbound fraction of the peptide substrate affinity column (from UniProt Q09137)”: the apparent specific activity with SAMS peptide [2] and with acetyl CoA carboxylase was above 20 fold lower throughout.
As to “AMPK, partially purified enzyme (purified to the DE-52 step)”, the apparent Km of phosphorylation in [3] came out at 3 µM; with SAMS peptide [4], 33 µM. In series [5], this compound gave a rate of phosphorylation (% of the rate of the SAMS peptide) of 40. For the same compound, the rate of phosphorylation (% of the SAMS peptide) in [6] came to 50; in series [7], 15.
Turning to “HMRSAMSGLHLVKRR-amide (HMRSAMSGLHLVKRR-NH2) [SAMS peptide]”, the Km in the series on AMPK came to 33 µM.
With “LKKLTLRASFSAQ (not fully specified) [ADR1(222-234)^P229]”, in the series on AMPK, the “rate of phosphorylation relative to the SAMS peptide” value is on record as “approximately 50%”; the Km is ~3 µM and 3 µM.
Consider “PLSRTLSVAAKK [glycogen synthase peptide]”, for which the “rate of phosphorylation relative to the SAMS peptide” value with AMPK is listed as “approximately 40%”.
